Source: article doi:10.1101/2021.12.16.472998 (bioRxiv, 2021)

How the values were obtained:
[1] = molecular target: recombinant hFc-LY6S-iso1 fusion protein (Homo sapiens, UniProt P0DTL4); assay: immunoblot
[2] = molecular target: native LY6S-iso1 protein (hLY6S-E, with its endogenous signal peptide) expressed in HEK293 cells (Homo sapiens, UniProt P0DTL4); assay: immunostaining of cells or tissue
[3] = molecular target: endogenous LY6S-iso1 protein in human spleen cells (Homo sapiens, UniProt P0DTL4); assay: immunostaining of cells or tissue
endogenous LY6S-iso1 protein in human spleen cells, sequence (P0DTL4 27-134): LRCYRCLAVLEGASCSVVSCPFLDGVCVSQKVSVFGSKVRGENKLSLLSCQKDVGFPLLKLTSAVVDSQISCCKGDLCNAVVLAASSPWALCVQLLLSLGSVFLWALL

recombinant hFc-LY6S-iso1 fusion protein, sequence (P0DTL4 27-134): as above
native LY6S-iso1 protein (hLY6S-E, with its endogenous signal peptide) expressed in HEK293 cells, sequence (P0DTL4 27-134): as above

- binding result [1]: binds
- binding result [2]: binds
- binding result [3]: binds
B1: anti-LY6S-iso1 monoclonal antibody 5E12 (antibody, V domains shown)
VH: QVQLKQSGAELVRPGASVKLSCKAWGYTFTGYEMHWVKQTPVHGLEWIGAIYPGSGGTAYNQKFKGQATLTVDKSSNTAYIELSSLTSEDSAVYYCTVYDFWGQGTTLTVSS
VL: DVVMTQTPLSLPVGLGDHASISCRSSQSLLKSDGNTYLHWYLQKSGQSPKLLIYKVSNRFSGVPDRFSGSGSGTDFTLKISRVEAEDLGVYFCSQSTHVPYTFGGGTKLEIK
